From US11448657B2, “Methods and kits for assessing Heparanase procoagulant activity, compositions comprising Heparanase, and methods for the treatment of coagulation-related disorders” (RAMBAM MED-TECH, priority 2011, dated 2022)
“Also recorded” adds a separate entry of the source.

How the values were obtained:
TF-factor VIIa complex = molecular target: T1, TF-factor VIIa complex (Homo sapiens, UniProt P13726); assay: Thrombin generation: prothrombin added to the factor Xa generation assay (chromogenic substrate for thrombin); assay type: biochemical; details: prothrombin 222 μM added, 15 min 37° C.
T1 construct: purchased American Diagnostica (Stanford, Conn., USA)
T1 sequence (P13726 33-295): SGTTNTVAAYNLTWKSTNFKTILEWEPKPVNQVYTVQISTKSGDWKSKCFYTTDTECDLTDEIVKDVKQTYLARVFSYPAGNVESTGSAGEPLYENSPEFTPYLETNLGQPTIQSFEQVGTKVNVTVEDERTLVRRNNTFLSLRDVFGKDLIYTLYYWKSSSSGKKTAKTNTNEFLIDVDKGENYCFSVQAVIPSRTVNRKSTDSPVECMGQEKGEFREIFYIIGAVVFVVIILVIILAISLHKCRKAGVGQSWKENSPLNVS
T1 sequence (P08709 61-212 partner limits assumed): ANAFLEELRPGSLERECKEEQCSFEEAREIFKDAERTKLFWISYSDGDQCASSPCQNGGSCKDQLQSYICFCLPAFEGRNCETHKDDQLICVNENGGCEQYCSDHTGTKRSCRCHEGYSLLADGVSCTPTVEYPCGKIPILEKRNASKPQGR
T1 sequence (P08709 213-466 partner limits assumed): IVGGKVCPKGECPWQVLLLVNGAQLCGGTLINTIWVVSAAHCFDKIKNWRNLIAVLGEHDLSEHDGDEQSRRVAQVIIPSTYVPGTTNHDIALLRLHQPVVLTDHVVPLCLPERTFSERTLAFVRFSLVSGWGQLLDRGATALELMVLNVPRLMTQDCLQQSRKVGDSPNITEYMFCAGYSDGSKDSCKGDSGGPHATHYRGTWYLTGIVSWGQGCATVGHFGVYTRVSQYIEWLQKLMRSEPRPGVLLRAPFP
Protocol: FIG. 1D. Heparanase increases thrombin levels. Recombinant human TF, recombinant human factor VIIa, plasma-derived human factor X, and plasma-derived human prothrombin were incu-bated (15 min, 37° C.) in a total volume of 125 μL. Chromogenic substrate for the detection of thrombin was then added (1 mM). Human recombinant heparanase (Hepa) was added prior to the addition of the coagulation factors. The mean value±SD of three independent experiments is shown. Note a 3-fold increase in coagulation activity in the presence of heparanase.
In order to verify that factor Xa produced in the presence of heparanase is active, thrombin generation, the next step in the coagulation cascade, was examined. The experiment described above (FIG. 1A) was repeated and plasma-derived human prothrombin (222 μM) was added following the addition of factor X. After 15 minutes at 37° C., chromogenic substrate for thrombin was added (1 mM). In the presence of heparanase, thrombine generation was increased (FIG. 1D).

whole blood = assay: Thromboelastography in citrated whole blood; set-up: species or system human
Protocol: Thromboelastogram studies. The assay includes addition of factor VIIa, X and calcium to blood drawn into citrate in the presence or absence of heparanase. Each time, a sample with addition of heparanase (Hepa) and a sample without (Con)—were analyzed in parallel. R—The period of latency from the time that the blood was placed in the analyzer until the initial fibrin formation: this represents the coagulation factor activation.
Angle—measures the rapidity of fibrin build-up and cross-linking: this represents the coagulation factor amplification. MA—A direct function of the maximum dynamic properties of fibrin and platelet bonding: signifies the ultimate strength of the clot. […] Representative results are shown.
The assay was performed according to the manufacturer's recommendations. Briefly, 3 mL of healthy donor's whole blood were collected in a bottle containing 3.2% (0.12M) sodium citrate and stored at room temperature. Recalcification and TEG® measurements at 37° C. were performed in disposable cups of the Thrombelastograph® coagulation analyzer (Haemoscope Corporation, Skokie, Ill., USA).
Next, the procoagulant effect of heparanase in human plasma was tested. Using an ELISA method [Shafat I. et al., Biochem Biophys Res. Commun. […] When heparanase, factor VIIa and factor X were incubated (15 min, 37° C.) with pooled normal human plasma from five healthy donors, followed by the addition of a chromogenic substrate for factor Xa, a 7- to 8-fold increase in factor Xa levels was obtained com-pared to levels in plasma incubated in the absence of heparanase (FIG. 2). In this condition the coagulation was mainly dependent on the concentration of endogenous TF, as described previously [Suefuji H. et al., Am Heart J. 1997, 134(2 Pt. 1):253-259; Kim H K et al., Cardiology. 2000, 93(1-2):31-36]. The effect of heparanase was also tested in whole blood using thromboelastography. […]

[1] = tested on: TF-heparanase interaction; assay: Co-immunoprecipitation of TF and heparanase; assay type: binding, human; details: purified TF and GS3 active heparanase 1 μg/mL each
Protocol: FIGS. 7A-7B: Direct interaction between heparanase and TF FIG. 7A. Co-immunoprecipitation. Purified TF (1 μg/mL) and GS3 active heparanase (1 μg/mL) proteins were incubated with beads coupled to polyclonal anti-TF (upper panel), or anti-heparanase (lower panel) antibodies. Bound proteins were analyzed by immunoblotting for the presence of heparanase (upper panel) or TF (lower panel), using the respective monoclonal antibody.
The interaction between TF and heparanase was analyzed by co-immunoprecipitation (Co-IP). The ProFound™ Co-Immunoprecipitation Kit in which the antibody is coupled to gel support, was employed according to the manufacturer's instruction (Pierce, Rockford, Ill., USA). Briefly, coupling gel was washed with coupling buffer. Polyclonal anti-TF or polyclonal anti-heparanase (1453) antibodies (100 μg) and 5 M sodium cyanoborohydride, were added to the gel support and incubated at 4° C. for 4 hours. The gel was then washed with quenching buffer and incubated with the quenching buffer and sodium cyanoborohydride at 20° C. for 30 minutes. Next, the gel was washed 4 times with wash solution, once with elution buffer, and twice with coupling buffer. Purified proteins (0.5 μg) were added to the gel and incubated for 2 hours at 4° C. […]

TF = molecular target: T2, TF (Homo sapiens, UniProt P13726); assay: Far-western analysis of heparanase binding to TF and TFPI; details: heparanase 1 μg/mL, 2 h, 4° C.; TF 100 ng, TFPI 100 ng
T2 construct: purchased American Diagnostica (Stanford, Conn., USA)
T2 sequence (P13726 33-295): as the sequence (P13726 33-295) above
Protocol: FIG. 7B. Far-western analysis. Recombinant TF (100 ng) and TFPI (100 ng) were resolved by SDS-PAGE under reducing conditions using a 10% gradient polyacrylamide gel. After electrophoresis, proteins were transferred to a polyvinylidene fluoride membrane. The membrane was incubated for 2 h with GS3 active heparanase protein (1 μg/mL, 4° C.). Next, the membrane was probed with anti-heparanase antibody followed by horseradish peroxidase-conjugated secondary antibody and chemiluminescence substrate, as described in the Design and Methods section.

factor X = molecular target: T3, factor X (Homo sapiens, UniProt P00742); assay: Direct activation of factor X by heparanase; assay type: biochemical; details: heparanase with factor X, 15 min 37° C.
T3 construct: plasma-derived human factor X; purchased American Diagnostica (Stanford, Conn., USA); host or cells: purified from human plasma
T3 sequence (P00742 183-488 limits assumed): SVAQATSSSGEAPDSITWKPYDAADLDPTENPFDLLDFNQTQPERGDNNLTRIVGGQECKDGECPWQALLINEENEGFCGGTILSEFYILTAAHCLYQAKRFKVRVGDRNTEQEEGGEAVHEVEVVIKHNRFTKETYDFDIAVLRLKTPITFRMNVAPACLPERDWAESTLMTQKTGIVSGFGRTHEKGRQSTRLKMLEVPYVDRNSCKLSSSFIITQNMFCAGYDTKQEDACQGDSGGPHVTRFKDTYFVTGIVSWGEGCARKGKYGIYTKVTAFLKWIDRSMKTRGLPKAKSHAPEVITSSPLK
T3 sequence (P00742 41-179 limits assumed): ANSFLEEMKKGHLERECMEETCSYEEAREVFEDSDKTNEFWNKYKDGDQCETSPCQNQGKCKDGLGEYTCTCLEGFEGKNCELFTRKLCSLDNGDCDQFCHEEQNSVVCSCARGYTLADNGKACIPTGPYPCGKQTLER

B1: heparanase: single chain GS3 active heparanase, comprised of the 8 kDa and 50 kDa heparanase heterodimer (8+50), recombinant human (protein, listed as Homo sapiens)
chain 1: DPAQDVVDLDFFTQEPLHLVSPSFLSVTIDANLATDPRFLILLGSPKLRTLARGLSPAYLRFGGTKTDFLIFDPKKE
chain 2: DPGKKFKNSTYSRSSVDVLYTFANCSGLDLIFGLNALLRTADLQWNSSNAQLLLDYCSSKGYNISWELGNEPNSFLKKADIFINGSQLGEDFIQLHKLLRKSTFKNAKLYGPDVGQPRRKTAKMLKSFLKAGGEVIDSVTWHHYYLNGRTATREDFLNPDVLDIFISSVQKVFQVVESTRPGKKVWLGETSSAYGGGAPLLSDTFAAGFMWLDKLGLSARMGIEVVMRQVFFGAGNYHLVDENFDPLPDYWLSLLFKKLVGTKVLMASVQGSKRRKLRVYLHCTNTDNPRYKEGDLTLYAINLHNVTKYLRLPYPFSNKQVDKYLLRPLGPHGLLSKSVQLNGLTLKMVDDQTLPPLMEKPLRPGSSLGLPAFSYSFFVIRNAKVAACI
modifications: single-chain GS3 linker
increase in coagulation activity (thrombin level) (TF-factor VIIa complex): 3 fold
time to clot formation (R) at the highest dose (whole blood; heparanase 4 μM): effect on time to clot formation was abolished; also recorded: no effect on R is detected
thrombus strength (MA) (whole blood; increasing doses of heparanase): increase in thrombus strength; also recorded: stronger
time to clot formation (R) (whole blood; increasing doses of heparanase, factor VIIa 0.04 μM, factor X 1.4 μM, recalcified blood): significant reduction in time to clot formation; also recorded: significantly faster
interaction with TF [1]: interacts with TF
binding to TF and TFPI on membrane (TF): A clear band was revealed in the TF-heparanase lane but not in the TFPI-heparanase lane
factor Xa generation from factor X alone (factor X): no factor Xa was generated
